We go through two proteins from paper PMC4906247, “Death-Associated Protein Kinase Activity Is Regulated by Coupled Calcium/Calmodulin Binding to Two Distinct Sites” (Structure(London, England:1993), 2016).

The data set deals with the molecule itself. Description: crystal structure; hDAPK1 CD + ARD (2.0 Å), hDAPK2 CD + ARD (1.47 Å) and hDAPK3 CD (3.1 Å) crystallised by vapor diffusion; homodimers in the crystals.

B1: human death-associated protein kinase 1, catalytic domain and most of the autoregulatory domain (hDAPK1 CD + ARD, residues 1-312) (domain or fragment, UniProt P53355 1-312, looked up)
chain: MTVFRQENVDDYYDTGEELGSGQFAVVKKCREKSTGLQYAAKFIKKRRTKSSRRGVSREDIEREVSILKEIQHPNVITLHEVYENKTDVILILELVAGGELFDFLAEKESLTEEEATEFLKQILNGVYYLHSLQIAHFDLKPENIMLLDRNVPKPRIKIIDFGLAHKIDFGNEFKNIFGTPEFVAPEIVNYEPLGLEADMWSIGVITYILLSGASPFLGDTKQETLANVSAVNYEFEDEYFSNTSALAKDFIRRLLVKDPKKRMTIQDSLQHPWIKPKDTQQALSRKASAVNMEKFKKFAARKKWKQSVRLI
notes: death-associated protein kinase 1, human, CD and most of the ARD, residues 1-312; Dimer in the crystal; also called hDAPK1 CD + ARD construct (1-312); source: E. coli BL21(DE3), purified (Ni-NTA, TEV cleavage, SEC); not shown: His6, N-terminal, cleaved
As to B1, the binding result is reported as “binds”.

B2: human death-associated protein kinase 3, catalytic domain (hDAPK3 CD, residues 1-274) (domain or fragment, UniProt O43293 1-274, looked up)
chain: MSTFRQEDVEDHYEMGEELGSGQFAIVRKCRQKGTGKEYAAKFIKKRRLSSSRRGVSREEIEREVNILREIRHPNIITLHDIFENKTDVVLILELVSGGELFDFLAEKESLTEDEATQFLKQILDGVHYLHSKRIAHFDLKPENIMLLDKNVPNPRIKLIDFGIAHKIEAGNEFKNIFGTPEFVAPEIVNYEPLGLEADMWSIGVITYILLSGASPFLGETKQETLTNISAVNYDFDEEYFSNTSELAKDFIRRLLVKDPKRRMTIAQSLEHSW
notes: death-associated protein kinase 3, human, CD, residues 1-274; Dimer in the crystal; also called hDAPK3 CD construct; source: E. coli Rosetta (DE3) pLysS, purified (glutathione Sepharose, TEV cleavage, SEC); not shown: GST, N-terminal, cleaved
With B2, the binding result was “binds”.
